Patent US20110039770A1, “INHIBITORS OF PROTEIN KINASE C ISOFORMS AND USES THEREOF” (PHARMAGAP INC., priority 2005, published 2011)
Where a SMILES comes first, the peptide text is derived from it. [ ]: non-standard residue; d: D form.

Experiments:
[1] = biological target: T1, PKC-ε (Homo sapiens, UniProt Q02156); test: ELISA-based competitive binding assay with purified PKC isoform; parameters: key to Affinity for PKC isoform ε: —: no detectable affinity; Low to very low affinity at 10X or 20X or both PRE concentrations in at least one cell line in the cell extract assay; Low affinity in purified isoform assay.; Moderate affinity at 10X or 20X or both PRE concentrations in at least one cell line in the cell extract assay.; High affinity at 10X or 20X or both PRE concentrations in at least one cell line in the cell extract assay; High affinity in purified isoform assay; conditions: for Affinity for PKC isoform ε: Purified isoform; for inhibition at 50 µM / inhibition at 100 µM / calculated binding capacity (100-% n, DMSO apparent binding subtracted): purified PKC-ε; for inhibition at 50 µM / inhibition at 100 µM: read-out: calculated binding capacity (100-% n, DMSO apparent binding subtracted)
T1 sequence (Q02156 1-737): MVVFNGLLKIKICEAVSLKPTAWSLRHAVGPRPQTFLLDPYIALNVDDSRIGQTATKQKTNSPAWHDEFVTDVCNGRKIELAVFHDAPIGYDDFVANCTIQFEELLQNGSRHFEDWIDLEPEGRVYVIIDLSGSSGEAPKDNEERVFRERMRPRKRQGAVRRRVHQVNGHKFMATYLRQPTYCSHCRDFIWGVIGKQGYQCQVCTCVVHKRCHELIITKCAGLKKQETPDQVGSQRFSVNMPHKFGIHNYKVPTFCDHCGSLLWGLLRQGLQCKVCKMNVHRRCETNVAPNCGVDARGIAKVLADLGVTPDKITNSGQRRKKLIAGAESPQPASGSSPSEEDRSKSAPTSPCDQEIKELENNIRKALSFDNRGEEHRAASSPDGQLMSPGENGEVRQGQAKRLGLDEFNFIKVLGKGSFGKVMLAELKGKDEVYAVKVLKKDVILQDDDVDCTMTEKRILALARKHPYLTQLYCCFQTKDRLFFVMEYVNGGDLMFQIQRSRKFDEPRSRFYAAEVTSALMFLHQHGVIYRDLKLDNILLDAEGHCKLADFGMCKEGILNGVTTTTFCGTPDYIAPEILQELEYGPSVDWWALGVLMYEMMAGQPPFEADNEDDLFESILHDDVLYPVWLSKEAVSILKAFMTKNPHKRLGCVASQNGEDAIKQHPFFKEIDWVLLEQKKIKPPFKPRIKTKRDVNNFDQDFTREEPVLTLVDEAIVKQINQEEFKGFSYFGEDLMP
Experimental: (§1) Peptides PRE 1, 2, 3, 4, 5, 6, 7, 8, 9, 10, 11, 12 and 13 (see Table 3) were tested for their ability to interfere with binding of PKC isoform-specific antibodies to their target PKC isoforms using a competitive binding assay and purified PKC isoforms.
(§2) Procedure: Competitive binding was assessed using a 96 well plate ELISA-based assay as described below.
(§3) Greiner 96 well ELISA plates were coated with the appropriate PKC isoform diluted in PBSN (PBS with Calcium/Magnesium+0.05% Sodium azide w/w). 50 μL/well at 250 ng/mL was used. Control wells contained PBSN only. Plates were incubated overnight at 4° C.
(§4) The plates were washed 3 times with 200 μL of dH2O per well, then 100 μL of blocking solution was added per well and the plate incubated for 1 h at 37° C. The washing steps with dH2O were repeated and 50 μL of the appropriate PRE solution (PRE stock solution [20 mM in DMSO] diluted in PBSN) was added and the plate incubated for 1 h at room temperature.
(§5) After incubation, 5 μL of 1.1:400 anti-PKC (isoform specific antibody) was added per well (to provide a final concentration of 1:4000). For PKC-epsilon, 1.1:800 dilution was used and for PKC-zeta a 1.1:100 dilution was used due to high and low binding affinity, respectively. The plates were then incubated 1 h at room temperature, followed by washing with dH2O as described above.
(§6) 50 μL of 1:1000 dilution of Alkaline Phosphatase (AP) conjugated antibody (anti-rabbit for all except zeta, which was anti-goat) was then added and the plate incubated for 1 h at room temperature. Washing with dH2O was then repeated. Finally, 100 μL of pNPP solution in pNPP buffer (2 mM MgCl2, 100 mM Sodium bicarbonate in water, pH 9.8) was added to all wells and incubated for 8 minutes for α, βI, βII ε, and ζ, or for 15-20 mins for δ (until sufficient coloration is observed). The reaction was stopped by addition of Stop solution (2N NaOH) and the absorbance at 405 nm was read on a Galaxy Plate reader.
(§7) Controls were PKC without PRE; blank controls, and controls containing the final concentrations of DMSO used for solubilizing the PREs. The non-specific binding capacity related to DMSO was also measured.
(§8) The antibodies used were as follows: anti-PKC α (Cat. No. SC-208); anti-PKC βI (Cat. No. SC-209); anti-PKC βII (Cat. No. SC-210); anti-PKC δ (Cat. No. SC-213); anti-PKC ε (Cat. No. SC-214); anti-PKC ζ (Cat. No. SC-216-G) (all from Santa Cruz Biotechnology, Inc.). The AP-conjugated antibodies were obtained from Jackson Immuno Research Laboratories (West Grove, Pa.).
(§9) Calculations: The OD values measured at 405 nm represent the free PKC coated per well.
(§10) OD405 PKC alone−Blank OD405 of each sample=OD405 coated isoform
(§11) (OD405 of sample X/OD405 coated isoform)×100=% n that represents the percentage of X binding compared to control.
(§12) 100-% n measures the relative binding capacity of X towards the tested isoform.
(§13) The apparent binding capacity of the DMSO samples was then subtracted from X binding capacity.
(§14) All measurements were made in triplicate and the values in the table represent the averaged calculated binding capacity values after subtraction of the DMSO apparent binding capacity (averaged from 12 values, respectively 10.80, 11.20 and 16.40 corresponding to the concentrations of DMSO used to dilute the […] at 200, 100 and 50 μM respectively). The results allow for quantitative comparison of the binding capacity of each PRE towards an individual isoform within each table, but not among isoforms due to differences in sensitivity of the specific antibodies toward the secondary antibody. This applies particularly to PKC-delta. As noted above, the colour development duration was increased 2-3 times and, as a result, the OD405 measurements may be overestimated for this isoform.

[2] = biological target: PKC-α (Homo sapiens, UniProt P17252); test: as above; parameters: key to Affinity for PKC isoform α: —: no detectable affinity; Low to very low affinity at 10X or 20X or both PRE concentrations in at least one cell line in the cell extract assay; Low affinity in purified isoform assay.; Moderate affinity at 10X or 20X or both PRE concentrations in at least one cell line in the cell extract assay.; High affinity at 10X or 20X or both PRE concentrations in at least one cell line in the cell extract assay; High affinity in purified isoform assay; conditions: for Affinity for PKC isoform α: Purified isoform
Experimental: as §1, §2, §3, §4, §5, §6, §7, §8, §9, §10, §11, §12, §13, §14

| Affinity for PKC isoform ε [1] | Affinity for PKC isoform α [2] | Compound | further results |
| --- | --- | --- | --- |
| H | H | CC[C@H](C)[C@H](NC(=O)[C@H](CO)NC(=O)[C@@H](NC(=O)CNC(=O)[C@@H](NC(=O)[C@H](CC(C)C)NC(=O)[C@H](CC(N)=O)NC(=O)[C@H](CCC(N)=O)NC(=O)[C@H](C)NC(=O)[C@H](CC(=O)O)NC(=O)CNC(=O)CNC(=O)[C@H](CCCCN)NC(=O)[C@@H](NC(=O)[C@H](CCC(=O)O)NC(=O)[C@H](CCC(N)=O)NC(=O)[C@@H](NC(=O)CNC(=O)[C@H](CCCCN)NC(=O)[C@H](C)NC(C)=O)[C@@H](C)CC)C(C)C)[C@@H](C)CC)[C@@H](C)CC)C(N)=O [PRE 3] (Ac-AKGIQEVKGGDAQNLIGISI-NH2) |  |
| — | H | CC[C@H](C)[C@H](NC(=O)[C@H](CO)NC(=O)[C@@H](NC(=O)CNC(=O)[C@@H](NC(=O)[C@H](CC(C)C)NC(=O)[C@H](CC(N)=O)NC(=O)[C@H](CCC(N)=O)NC(=O)[C@H](C)NC(=O)[C@H](CC(=O)O)NC(=O)[C@H](CCCCN)NC(C)=O)[C@@H](C)CC)[C@@H](C)CC)C(N)=O [PRE 4, Ac-KDAQNLIGISI-NH2] (Ac-KDAQNLIGISI-NH2) | inhibition at 50 µM ([1]; PRE 50 μM): 0%; inhibition at 100 µM ([1]; PRE 100 μM): 0% |
| — | — | CC[C@H](C)[C@H](NC(=O)[C@H](CO)NC(=O)[C@@H](NC(=O)CNC(=O)[C@@H](NC(=O)[C@H](CC(C)C)NC(=O)[C@H](CC(N)=O)NC(=O)[C@H](CCC(N)=O)NC(=O)[C@H](C)NC(=O)[C@H](CC(=O)O)NC(=O)[C@H](CCCCN)NC(=O)CNC(=O)CNC(=O)[C@H](CCCCN)NC(=O)[C@@H](NC(=O)[C@H](CCC(=O)O)NC(=O)[C@H](CCC(N)=O)NC(=O)[C@@H](NC(=O)CNC(=O)[C@H](CCCCN)NC(=O)[C@H](C)NC(C)=O)[C@@H](C)CC)C(C)C)[C@@H](C)CC)[C@@H](C)CC)C(N)=O [PRE 5] (Ac-AKGIQEVKGGKDAQNLIGISI-NH2) | inhibition at 50 µM ([1]; PRE 50 μM): 0%; inhibition at 100 µM ([1]; PRE 100 μM): 0%; inhibition at 50 µM ([2]; PRE 50 μM, purified PKC-α, read-out: calculated binding capacity (100-% n, DMSO apparent binding subtracted)): 0%; inhibition at 100 µM ([2]; PRE 100 μM, purified PKC-α, read-out: calculated binding capacity (100-% n, DMSO apparent binding subtracted)): 0%; inhibition at 200 µM ([2]; PRE 200 μM, purified PKC-α, read-out: calculated binding capacity (100-% n, DMSO apparent binding subtracted)): 0% |
| — | — | Ac-ISIGILNQADK-NH2 [PRE 10] | calculated binding capacity (100-% n, DMSO apparent binding subtracted) ([1]; PRE 50 μM): 0.91%; calculated binding capacity (100-% n, DMSO apparent binding subtracted) ([1]; PRE 200 μM): 1.75% |
| L | L | Ac-ISIGILQNADK-NH2 (not fully specified; printed as Ac-ISIGILQNADK-NH2) [PRE 7] |  |
| — | — | Ac-KDANQLIGISI-NH2 [PRE 6] | calculated binding capacity (100-% n, DMSO apparent binding subtracted) ([1]; PRE 50 μM): 2.61%; calculated binding capacity (100-% n, DMSO apparent binding subtracted) ([1]; PRE 100 μM): 0.46% |
| — | — | Ac-KDAQNLI-NH2 [PRE 12] |  |
| — | — | Ac-RDAQNLI-NH2 [PRE 13] |  |
| L | L | Ac-RDAQNLIGISI-NH2 [PRE 11] |  |
| L | — | Ac-isigilqnadk-NH2 (Ac-[dI][dS][dI]G[dI][dL][dQ][dN][dA][dD][dK]-NH2; SMILES CC[C@@H](C)[C@@H](NC(C)=O)C(=O)N[C@H](CO)C(=O)N[C@@H](C(=O)NCC(=O)N[C@@H](C(=O)N[C@H](CC(C)C)C(=O)N[C@H](CCC(N)=O)C(=O)N[C@H](CC(N)=O)C(=O)N[C@H](C)C(=O)N[C@H](CC(=O)O)C(=O)N[C@H](CCCCN)C(N)=O)[C@H](C)CC)[C@H](C)CC) [PRE 9] | calculated binding capacity (100-% n, DMSO apparent binding subtracted) ([1]; PRE 50 μM): 16.35%; calculated binding capacity (100-% n, DMSO apparent binding subtracted) ([1]; PRE 100 μM): 8.53%; calculated binding capacity (100-% n, DMSO apparent binding subtracted) ([2]; PRE 100 μM, purified PKC-α): 5.35% |
| — | — | ILEDKGGDAQNLIGISI [PRE 8] |  |
| — | — | RRKKGGKDFVVKR [PRE 1] | calculated binding capacity (100-% n, DMSO apparent binding subtracted) ([1]; PRE 100 μM): 5.47%; calculated binding capacity (100-% n, DMSO apparent binding subtracted) ([1]; PRE 200 μM): 0.83% |
